Changes are numbered by the printed parent chain. Blank lines part the entries; values can stand above or below the binder they belong to.
Assays:
[1] = molecular target: T1, human TNFR1 on MRC-5 cells (human, UniProt P19438 30-455); test: cell-based or functional assay
T1 sequence (looked up): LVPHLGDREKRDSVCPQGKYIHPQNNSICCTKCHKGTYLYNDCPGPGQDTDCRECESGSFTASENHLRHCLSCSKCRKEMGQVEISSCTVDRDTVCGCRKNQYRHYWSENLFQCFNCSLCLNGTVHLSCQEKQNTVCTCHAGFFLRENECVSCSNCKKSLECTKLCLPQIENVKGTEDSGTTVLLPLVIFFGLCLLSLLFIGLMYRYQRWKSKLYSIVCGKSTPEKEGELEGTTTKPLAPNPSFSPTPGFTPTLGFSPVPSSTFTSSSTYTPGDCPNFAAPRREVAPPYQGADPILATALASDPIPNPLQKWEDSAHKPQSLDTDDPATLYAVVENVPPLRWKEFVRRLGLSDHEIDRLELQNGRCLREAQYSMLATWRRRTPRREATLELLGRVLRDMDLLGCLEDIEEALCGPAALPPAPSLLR

[2] = molecular target: T2, human TNFR1 (recombinant, R&D Systems cat no. 636-R1/CF, biotinylated) (human, UniProt P19438 30-211, limits assumed, biotinylated with EZ-Link NHS-LC-LC-biotin); test: BIAcore T100, biotinylated human TNFR1 on chip
T2 construct: it is not tied to the BIAcore reagent; also called p55; hTNFR1
T2 sequence (looked up): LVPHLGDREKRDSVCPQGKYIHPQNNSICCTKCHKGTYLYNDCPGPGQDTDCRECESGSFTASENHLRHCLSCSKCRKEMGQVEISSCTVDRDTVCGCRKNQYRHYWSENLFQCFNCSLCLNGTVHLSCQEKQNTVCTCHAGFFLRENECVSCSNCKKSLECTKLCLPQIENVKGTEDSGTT
Description: Furthermore, the affinity and potency of the purified fusion molecules were determined using a BIAcore T100 and the MRC5 cell assay, respectively. The BIAcore T100 is a highly sensitive BIAcore version ideally suited for determination of high affinity binders (Papalia et al., Anal Biochem. 359, p 112 (2006)). Biotinylated, human TNFR1 was coated on the chip and each of the twelve AlbudAb fusions were passed over this surface at four different concentrations (2, 10, 50 and 250 nM). […] This improvement is observed regardless of the AlbudAb used for pairing and largest for the pairings with DOM7h-14-18. A second experiment used to establish if the different pairings affected the functional activity of the anti-TNFR1 dAb was the MRC5 cell assay (Table 8). A more marked difference between the pairings is observed in the MRC5 assay, in which the best potencies are observed in pairings with DOM7h-11-3 and DOM7h-11-12 while pairings with DOM7h-14-10 (DMS0117) lead to significant decreases in potency.

[3] = molecular target: T1, human TNFR1 on MRC-5 cells; test: cell-based or functional assay; remark: listed apart in the source
[4] = molecular target: T2, human TNFR1 (recombinant, R&D Systems …); test: BIAcore, human TNFR1

B2: DMS0121 (bispecific antibody)
chain: EVQLLESGGGLVQPGGSLRLSCAASGFTFVKYSMGWVRQAPGKGLEWVSQISNTADRTYYAHSVKGRFTISRDNSKNTLYLQMNSLRAEDTAVYYCAIYTGRWVPFEYWGQGTLVTVSSASGGGGSGGGGSGGGGSDIQMTQSPSSLSASVGDRVTITCRASRPIGTTLSWYQQKPGKAPKLLILWNSRLQSGVPSRFSGSGSGTDFTLTISSLQPEDFATYYCAQAGTHPTTFGQGTKVEIKR
notes: anti-TNFR1 dAb / AlbudAb in-line fusion
- MRC5 (ND50 in nM) [1]: 1.8 nM
- Kd [2]: 0.2 nM
- koff [2]: 6e-05 s⁻¹
- kon [2]: 300000 M⁻¹ s⁻¹

B3: DMS0122 (bispecific antibody)
chain: B2 chain with T168M, W186F, N187G
- MRC5 (ND50 in nM) [1]: 1.5 nM

B5: DMS0114 (bispecific antibody)
chain: EVQLLESGGGLVQPGGSLRLSCAASGFTFVKYSMGWVRQAPGKGLEWVSQISNTADRTYYAHSVKGRFTISRDNSKNTLYLQMNSLRAEDTAVYYCAIYTGRWVPFEYWGQGTLVTVSSASTDIQMTQSPSSLSASVGDRVTITCRASQWIGSQLSWYQQKPGKAPKLLIMWRSSLQSGVPSRFSGSGSGTDFTLTISSLQPEDFATYYCAQGLMKPMTFGQGTKVEIKR
- MRC5 (ND50 in nM) [1]: 3.7 nM

B6: DOM1h-574-15 (other)
VH: EVQLLESGGGLVQPGGSLRLSCAASGFTFVKYSMGWVRQAPGKGLEWVSQISNTGDHTYYADSVKGRFTISRDNSKNTLYLQMNSLRAEDTAVYYCAIYTGRWEPFDYWGQGTLVTVSS
notes: VH dAb
- MRC-5 ND50 (TNFα-mediated IL-8 release) [3]: 300 nM
- Kd [4]: 20 nM

B17: DMS0111 (bispecific antibody)
chain: EVQLLESGGGLVQPGGSLRLSCAASGFTFVKYSMGWVRQAPGKGLEWVSQISNTADRTYYAHSVKGRFTISRDNSKNTLYLQMNSLRAEDTAVYYCAIYTGRWVPFEYWGQGTLVTVSSASTDIQMTQSPSSLSASVGDRVTITCRASRPIGTTLSWYQQKPGKAPKLLILWNSRLQSGVPSRFSGSGSGTDFTLTISSLQPEDFATYYCAQAGTHPTTFGQGTKVEIKR
notes: as for B2
- MRC5 (ND50 in nM) [1]: 1.6 nM
- Kd [2]: 0.17 nM
- koff [2]: 6.2e-05 s⁻¹
- kon [2]: 370000 M⁻¹ s⁻¹

B18: DMS0112 (bispecific antibody)
chain: B17 chain with T154M, W172F, N173G
notes: as for B2
- MRC5 (ND50 in nM) [1]: 1.3 nM
- Kd [2]: 0.14 nM
- koff [2]: 5.5e-05 s⁻¹
- kon [2]: 400000 M⁻¹ s⁻¹

B19: DMS0117 (bispecific antibody)
chain: EVQLLESGGGLVQPGGSLRLSCAASGFTFVKYSMGWVRQAPGKGLEWVSQISNTADRTYYAHSVKGRFTISRDNSKNTLYLQMNSLRAEDTAVYYCAIYTGRWVPFEYWGQGTLVTVSSASTSGPSDIQMTQSPSSLSASVGDRVTITCRASQWIGSQLSWYQQKPGKAPKLLIMWRSSLQSGVPSRFSGSGSGTDFTLTISSLQPEDFATYYCAQGLRHPKTFGQGTKVEIKR
- MRC5 (ND50 in nM) [1]: 25.9 nM

B20: DMS0115 (bispecific antibody)
chain: EVQLLESGGGLVQPGGSLRLSCAASGFTFVKYSMGWVRQAPGKGLEWVSQISNTADRTYYAHSVKGRFTISRDNSKNTLYLQMNSLRAEDTAVYYCAIYTGRWVPFEYWGQGTLVTVSSASTSGPSDIQMTQSPSSLSASVGDRVTITCRASRPIGTTLSWYQQKPGKAPKLLILWNSRLQSGVPSRFSGSGSGTDFTLTISSLQPEDFATYYCAQAGTHPTTFGQGTKVEIKR
notes: as for B2
- MRC5 (ND50 in nM) [1]: 1.7 nM
- Kd [2]: 0.16 nM
- koff [2]: 5.8e-05 s⁻¹
- kon [2]: 360000 M⁻¹ s⁻¹

B21: DMS0118 (bispecific antibody)
chain: B19 chain with R219M, H220K, K222M
notes: as for B2
- MRC5 (ND50 in nM) [1]: 1.4 nM
- Kd [2]: 0.076 nM
- fold higher affinity than the other pairings [2]: 3 fold
- koff [2]: 4.9e-05 s⁻¹
- kon [2]: 640000 M⁻¹ s⁻¹

B22: DMS0116 (bispecific antibody)
chain: B20 chain with T158M, W176F, N177G
notes: as for B2
- MRC5 (ND50 in nM) [1]: 1.7 nM
- Kd [2]: 0.14 nM
- koff [2]: 5.4e-05 s⁻¹
- kon [2]: 370000 M⁻¹ s⁻¹

Continued, values first:

- MRC5 (ND50 in nM) [1]: 5 nM
B1: DMS0123 (bispecific antibody)
chain: EVQLLESGGGLVQPGGSLRLSCAASGFTFVKYSMGWVRQAPGKGLEWVSQISNTADRTYYAHSVKGRFTISRDNSKNTLYLQMNSLRAEDTAVYYCAIYTGRWVPFEYWGQGTLVTVSSASGGGGSGGGGSGGGGSDIQMTQSPSSLSASVGDRVTITCRASQWIGSQLSWYQQKPGKAPKLLIMWRSSLQSGVPSRFSGSGSGTDFTLTISSLQPEDFATYYCAQGLRHPKTFGQGTKVEIKR

- MRC5 (ND50 in nM) [1]: 1.9 nM
- Kd [2]: 0.077 nM
- fold higher affinity than the other pairings [2]: 3 fold
- koff [2]: 3.5e-05 s⁻¹
- kon [2]: 450000 M⁻¹ s⁻¹
B4: DMS0124 (bispecific antibody)
chain: B1 chain with R229M, H230K, K232M
notes: as for B2

- MRC-5 ND50 (TNFα-mediated IL-8 release) [3]: 140 nM
B7: DOM1h-574-19 (other)
VH: B6 VH with V30G, G44D

- MRC-5 ND50 (TNFα-mediated IL-8 release) [3]: 100 nM
- Kd [4]: 19 nM
B8: DOM1h-574-10 (other)
VH: B6 VH with V30G, G44D, D56G
notes: VH dAb

- MRC-5 ND50 (TNFα-mediated IL-8 release) [3]: 17 nM
- Kd [4]: 4.1 nM
B9: DOM1h-574-18 (other)
VH: B6 VH with V30G, G44D, H57R
notes: VH dAb

- MRC-5 ND50 (TNFα-mediated IL-8 release) [3]: 2200 nM
- Kd [4]: 210 nM
B10: DOM1h-574 (other)
VH: B6 VH with D56G, I98K, R102H
notes: VH dAb; also called parental dAb

- MRC-5 ND50 (TNFα-mediated IL-8 release) [3]: 130 nM
- Kd [4]: 23 nM
B11: DOM1h-574-12 (other)
VH: B6 VH with I98K
notes: VH dAb

- MRC-5 ND50 (TNFα-mediated IL-8 release) [3]: 800 nM
- Kd [4]: 200 nM
B12: DOM1h-574-11 (other)
VH: B6 VH with D56G, I98K, Y108H
notes: VH dAb

- MRC-5 ND50 (TNFα-mediated IL-8 release) [3]: 20 nM
- Kd [4]: 8.4 nM
B13: DOM1h-574-17 (other)
VH: B6 VH with L45P
notes: VH dAb

- MRC-5 ND50 (TNFα-mediated IL-8 release) [3]: 300 nM
- Kd [4]: 44 nM
B14: DOM1h-574-13 (other)
VH: B6 VH with H57R, I98K
notes: VH dAb

- MRC-5 ND50 (TNFα-mediated IL-8 release) [3]: 580 nM
- Kd [4]: 48 nM
B15: DOM1h-574-7 (other)
VH: B6 VH with D56G
notes: VH dAb

- MRC-5 ND50 (TNFα-mediated IL-8 release) [3]: 10 nM
- Kd [4]: 5.7 nM
B16: DOM1h-574-8 (other)
VH: B6 VH with L45P, D56G
notes: VH dAb
